Data: publication PMC5095173, “Disulfide-activated protein kinase G Iα regulates cardiac diastolic relaxation and fine-tunes the Frank–Starling response” (Nature Communications, 2016)
Values joined by “and” are separate entries in the source; they are usually repeats but may differ in a detail not shown here. Equal entries are not always repeated.

B1: G-protein-signaling modulator 1: PKGIα substrate, phospho site S567 (protein, UniProt Q9R080 1-673, looked up)
G-protein-signaling modulator …: MASPAPPAAEELPGPAARRLYSRMEASCLELALEGERLCKAGDFKAGVAFFEAAVQVGTEDLKTLSAIYSQLGNAYFYLKEYARALQFHKHDLLLARTIGDRMGEAKASGNLGNTLKVLGRFDEAIVCCQRHLDIAQEQGDKVGEARALYNIGNVYHAKGKQLSWNAAQDPGHLPPDVRETLHRASEFYERNLSLVKELGDRAAQGRAYGNLGNTHYLLGNFTEATTFHKERLAIAKEFGDKAAERRAYSNLGNAHIFLGRFDVAAEHYKKTLQLSRQIRDQAVEAQACYSLGNTYTLLQDYERAAEYHLRHLVIAQELADRVGEGRACWSLGNAYVSMGSPAQALTFAKKHLQISQEIGDRNGELTARMNIAHLQLALGRLTSPAAAEKPDLAGYEAQGARPKRTQRLSAETWDLLRLPLDREQNGETHHTGDWRGPSRDSLPLPMRSRKYQEGPDAIERRPREGSHSPLDSADVRVQVPRTGIPRAPSSDEECFFDLLSKFQSSRMDDQRCPLEEGQAGAAEATAAPTLEERAAQPSVTASPQTEEFFDLIASSQSRRLDDQRASVGSLPGLRITLNNVGHLRGDGDPQEPGDEFFNMLIKYQSSRIDDQRCPPPDVLPRGPTMPDEDFFSLIQRVQAKRMDEQRVDLAGSPDQEASGLPDPRQQCPPGAS
modifications: phosphorylated at S567
B2: CLIP-associating protein 2: PKGIα substrate, phospho site S436 (protein, UniProt Q99JD4 1-1286, looked up)
CLIP-associating protein 2: MRRLICKRICDYKSFDDEESVDGNRPSSAASAFKVPAPKTPGNPVNSARKPGSAGGPKAGGTSKEGGAGAVDEDDFIKAFTDVPSIQIYSSRELEETLNKIREILSDDKHDWDQRANALKKIRSLLVAGAAQYDCFFQHLRLLDGALKLSAKDLRSQVVREACITVAHLSTVLGNKFDHGAEAIVPTLFNLVPNSAKVMATSGCAAIRFIIRHTHVPRLIPLITSNCTSKSVPVRRRSFEFLDLLLQEWQTHSLERHAAVLVETIKKGIHDADAEARVEARKTYMGLRNHFPGEAETLYNSLEPSYQKSLQTYLKSSGSVASLPQSDRSSSSSQESLNRPFSSKWSTANPSAVAGRVSVGGSKASPLPGSLQRSRSDIDVNAAAGAKAHHAAGQAVRSGRLGAGALNPGSYASLEDTSDKMDGTASEDGRVRAKLSTPLVAVGNAKTDSRGRSRTKMVSQSQPGSRSGSPGRVLTTTALSTVSSGAQRILVNSASAQKRSKIPRSQGCSREASPSRLSVARSSRIPRPSVSQGCSREASRESSRDTSPVRSFQPLGPGYGMSQSSRLSSSVSAMRVLNTGSDVEEAVADALLLGDIRTKKKPARRRYESYGMHSDDDANSDASSACSERSYSSRNGSIPTYMRQTEDVAEVLNRCASSNWSERKEGLLGLQNLLKNQRTLSRVELKRLCEIFTRMFADPHGKVFSMFLETLVDFIQVHKDDLQDWLFVLLTQLLKKMGADLLGSVQAKVQKALDVTRESFPNDLQFNILMRFTVDQTQTPSLKVKVAILKYIETLAKQMDPGDFINSSETRLAVSRVITWTTEPKSSDVRKAAQSVLISLFELNTPEFTMLLGALPKTFQDGATKLLHNHLRNTGNGTQSSMGSPLTRPTPRSPANWSSPLTSPTNTSQNTLSPSAFDYDTENMNSEDIYSSLRGVTEAIQNFSFRSQEDMSEPLKRDPKKEDGDTVCSGPGMSDPRAGGDAPDSSQPALDNKASLLHSVPLHSSPRSRDYNPYNYSDSISPFNKSALKEAMFDDDADQFPDDLSLDHSDLVAELLKELSNHNERIEERKIALYELMKLTQEESFSVWDEHFKTILLLLLETLGDKEPTIRALALKVLKEILRHQPARFKNYAELTVMKTLEAHKDPHKEVVRSAEEAASVLATSISPEQCIKVLCPIIQTADYPINLAAIKMQTKVIERVSKETLNLLLPEIMPGLIQGYDNSESSVRKACVFCLVAVHAVIGDELKPHLSQLTGSKMKLLNLYIKRAQTGSAGADPTTDVSGQS
modifications: phosphorylated at S436
B3: Cytoplasmic dynein 1 light intermediate chain 1: PKGIα substrate, phospho sites T408 (r11) and S412 (r12) (protein, UniProt Q9QXU8 1-523, looked up)
Cytoplasmic dynein 1 light …: MAAVGRVGSFGSSPPGLASTYASGPLANELASGSGGPAAGDDEDGQNLWSRILREVSTRSRSKLPTGKNVLLLGEDGAGKTSLIRRIQGIEEYKKGRGLEYLYLNVHDEDRDDQTRCNVWILDGDLYHKGLLKFSLDALSLRDTLVMLVVDMSKPWTALDSLQKWASVVREHVDKLKIPPEEMKEMEQKLIRDFQEYVEPGEDFPASPQRRATAAQEDRDDSVVLPLGADTLTHNLGLPVLVVCTKCDAISVLEKEHDYRDEHFDFIQSHIRKFCLQYGAALIYTSVKENKNIDLVYKYIVQKLYGFPYKIPAVVVEKDAVFIPAGWDNDKKIGILHENFQTLKIEDNFEDIITKPPVRKFVHEKEIMAEDDQVFLMKLQSLLAKQPPTAAGRPVDASPRVPGGSPRTPNRSVSSNVASVSPIPAGSKKIDPNMKAGATSEGVLANFFNSLLSKKTGSPGGPGVGGSPGGGAAGASTSLPPSAKKSGQKPVLSDVHAELDRITRKPASVSPTTPPSPTEGEAS
modifications: phosphorylated at T408 and S412
B4: Histone H1.4: PKGIα substrate, phospho site S36 (protein, UniProt P43274 2-219, looked up)
Histone H1.4: SETAPAAPAAPAPAEKTPVKKKARKAAGGAKRKTSGPPVSELITKAVAASKERSGVSLAALKKALAAAGYDVEKNNSRIKLGLKSLVSKGTLVQTKGTGASGSFKLNKKAASGEAKPKAKRAGAAKAKKPAGAAKKPKKAAGTATAKKSTKKTPKKAKKPAAAAGAKKAKSPKKAKATKAKKAPKSPAKAKTVKPKAAKPKTSKPKAAKPKKTAAKKK
modifications: phosphorylated at S36
B5: Histone H1.5: PKGIα substrate, phospho site T35 (protein, UniProt D3ZBN0 2-222, looked up)
Histone H1.5: SETAPAETTAPAPVEKSPAKKKTKKAGAAKRKATGPPVSELITKAVSASKERGGVSLPALKKALAAGGYDVEKNNSRIKLGLKSLVSKGTLVQTKGTGASGSFKLNKKVASGEAKPKAKKTGAAKAKKPTGATPKKPKKTAGAKKTVKKTPKKAKKPAAAGVKKVTKSPKKAKAAAKPKKATKSPARPKAVKSKASKPKVTKPKAAKPKAAKVKKAVSKKK
modifications: phosphorylated at T35
B6: Heat shock protein beta-6: PKGIα substrate, phospho site S16 (protein, UniProt P97541 1-162, looked up)
Heat shock protein beta-6: MEIRVPVQPSWLRRASAPLPGFSTPGRLFDQRFGEGLLEAELASLCPAAIAPYYLRAPSVALPTAQVPTDPGYFSVLLDVKHFSPEEISVKVVGDHVEVHARHEERPDEHGFIAREFHRRYRLPPGVDPAAVTSALSPEGVLSIQATPASAQASLPSPPAAK
modifications: phosphorylated at S16
B7: Lyrm1 pS110 (protein, UniProt B2RYU8 1-122, looked up)
LYR motif-containing protein 1: MTAASRQEVLGLYRSFFRLARKWQAASGQMEDTIKEKQYILNEARTLFQKNKNLTDPDLIKQCIDECTARIEIGLHYQIPYPRPIHLPPMGLTPRRGRGLQTQEKLRKFSKPLYLKSHDEVS
modifications: phosphorylated at S110

Tested on: PKGIα (analogue-sensitive C42S/M438G), cGMP-activated
Assay: Chemical genetic phosphoproteomic screen, cGMP-activated PKGIα C42S/M438G versus unactivated control
Format: biochemical, human PKGIα; substrates in rat heart homogenate
Conditions: PKGIα C42S/M438G + 100 μM cGMP vs basal; 1 h, 30 °C, pH 7.5, rat heart homogenate; label-free LC–MS/MS; n=4; * P<0.05 Dunnett: all values except phospholamban S16
Text: (§1) We employed a chemical genetic method[18] to identify direct substrates of cGMP-activated PKGIα and disulfide bond-activated PKGIα in heart tissue. This method involves mutation of the ATP binding-site of the kinase of interest so that it can accept a ‘bulky' N6-alkylated ATP analogue for example, N6^−phenylethyl ATP. An oxygen atom on the γ phosphate is also replaced with a sulfur atom—giving an N6-alkylated ATPγS analogue—so that the mutant kinase catalyses the transfer of a thiophosphate group (–PO3S^3−) to its substrates instead of a phosphate. The thiophosphate group is nucleophilic, providing a basis for substrates of the analogue-sensitive kinase to be purified by a ‘covalent capture' protocol. LC–MS/MS allows identification of the substrate and localization of the phosphorylation site. Thiophosphorylated proteins can also be detected with a thiophosphate ester-specific antibody. Analogue-sensitive mutants of PKGIα and PKGIα C42S (which cannot form the activating intermolecular disulfide bond) were generated by mutating Met438 in the ATP-binding domain to Gly. This mutation was chosen based on a previous study where an analogue-sensitive mutant of the catalytic subunit of PKA—which shares sequence homology with PKGIα—was engineered. Detailed protocols are given below.
(§2) A pCDNA3 expression vector encoding human FLAG-tagged PKGIα (ref. [41]) underwent site-directed mutagenesis to generate constructs for untagged WT, C42S, M438G and C42S/M438G PKGIα. Mutations were introduced using the QuikChange II Site-Directed Mutagenesis Kit (Agilent) according to the manufacturer's instructions. Expression and purification of the PKGIα mutants was performed according to a published method[42] as follows: suspension FreeStyle 293-F cells (ThermoFisher Scientific) were transfected with the appropriate PKGIα construct using the stable cationic polymer polyethyleneimine (PEI) as a transfection reagent. After ∼72 h cells were harvested by centrifugation (400g; room temperature; 15 min), re-suspended in ice cold lysis buffer (25 mM sodium phosphate buffer pH 6.8; 10 mM ethylenediaminetetraacetic acid (EDTA); 100 mM NaCl; 10 mM benzamidine hydrochloride; and 10 mM dithiothreitol (DTT)) and frozen in liquid N2. Cells were lysed by three freeze (liquid N2)-thaw (37 °C) cycles and the lysate was clarified by centrifugation at 140,000g and 4 °C for 30 min. The soluble protein fraction was loaded onto a pre-equilibrated 8-(2-aminoethylamino)adenosine-3′, 5′-cyclic monophosphate column (8-AEA-cAMP agarose; BioLog, Germany) followed by washing with 20 column volumes of lysis buffer. The column was further washed with lysis buffer +3 M NaCl (5 column volumes) and PKGIα was then eluted with lysis buffer +150 mM NaCl and 500 μM cAMP. Removal of cAMP and buffer exchange was achieved by extensive dialysis against 25 mM sodium phosphate buffer pH 6.8, 2 mM EDTA and 100 mM NaCl. For ITC analysis, WT PKGIα was incubated with 10 mM lipoic acid for 2 h on ice to obtain ∼100% disulfide dimer (confirmed by SDS-PAGE). Oxidized WT or C42S PKGIα was further purified by size exclusion chromatography using a HiLoad 16/600 Superdex 200 pg column (GE Healthcare) with 50 mM sodium phosphate buffer pH 7.4 and 100 mM NaCl. Proteins were concentrated using Amicon Ultra centrifugal filter devices (Merck Millipore). DTT was absent in storage buffers so that the activating disulfide bond would not be reduced and so that the PKGIα M438G mutant would be oxidized to disulfide dimer in the presence of air (confirmed by SDS-PAGE). Protein concentration was determined by Pierce BCA assay (ThermoFisher) and enzyme activity was confirmed using the Omnia kinase assay kit (ThermoFisher).
(§3) Male Wistar rats (9–10 weeks; body weight 300–330 g) were euthanized by intraperitoneal injection of sodium pentobarbitone (200 mg kg^−1) with heparin (500 USP units). […]

Molecule	Log2 fold change in phosphorylation, cGMP versus control
B1	2.93*
B2	1.79*
B3	3.76*
B4	1.30*
B5	3.90*
B6	2.61*

Same assay, conditions: phospho site S412 (second site of this protein); n=4; * P<0.05

Molecule	Log2 fold change in phosphorylation, cGMP versus control
B3	4.15*

Tested on: PKGIα (analogue-sensitive M438G), disulfide-activated
Assay: Chemical genetic phosphoproteomic screen, disulfide-activated PKGIα M438G versus unactivated control
Format: biochemical, human PKGIα; substrates in rat heart homogenate
Conditions: control = PKGIα C42S/M438G
Text: as §1, §2, §3

Molecule	log2 fold change Disulfide vs Control
B7	0.4439 and 0.5384

Same assay, conditions: disulfide-activated PKGIα M438G vs basal; 1 h, 30 °C, pH 7.5, rat heart homogenate; label-free LC–MS/MS; n=4; * P<0.05 Dunnett: only phospholamban S16

Molecule	Log2 fold change in phosphorylation, Disulfide versus control
B1	1.04
B2	0.86
B3	1.95
B4	0.48
B5	1.43
B6	1.25

Same assay, conditions: phospho site S412 (second site of this protein); n=4; not significant

Molecule	Log2 fold change in phosphorylation, Disulfide versus control
B3	1.66
